Read-outs that look alike come from different tables or passages of the source.
T1: APC9319-AA
T1 chain: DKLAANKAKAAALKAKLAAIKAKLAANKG

T2: APC4264-AA
T2 chain: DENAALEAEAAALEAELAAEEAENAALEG

T3: APC8191-AA
T3 chain: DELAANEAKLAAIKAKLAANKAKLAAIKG

T4: APC4011-AA
T4 chain: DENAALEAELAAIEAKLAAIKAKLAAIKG

T5: APC3645-AA
T5 chain: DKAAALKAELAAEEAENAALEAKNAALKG

T6: APC6108-AA
T6 chain: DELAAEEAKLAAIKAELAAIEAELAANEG

T7: APC4436-AA
T7 chain: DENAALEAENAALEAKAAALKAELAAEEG

T8: APC9096-AA
T8 chain: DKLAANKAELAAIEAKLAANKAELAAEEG

T9: APC5383-AA
T9 chain: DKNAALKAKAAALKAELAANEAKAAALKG

T10: APC8910-AA
T10 chain: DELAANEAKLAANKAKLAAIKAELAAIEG

T11: APC2405-AA
T11 chain: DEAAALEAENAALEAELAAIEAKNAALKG

T12: APC7099-AA
T12 chain: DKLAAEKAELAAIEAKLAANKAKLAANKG

T13: O8
T13 chain: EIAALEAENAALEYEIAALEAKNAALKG

T14: O9
T14 chain: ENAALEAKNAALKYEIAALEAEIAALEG

T15: 4H3664-AA
T15 chain: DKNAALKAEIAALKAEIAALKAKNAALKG

T16: 4H3605-AA
T16 chain: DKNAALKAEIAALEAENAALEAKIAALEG

T17: 4H481-AA
T17 chain: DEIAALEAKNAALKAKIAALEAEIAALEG

T18: 4H3625-AA
T18 chain: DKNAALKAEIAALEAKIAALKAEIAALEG

T19: 4H662-AA
T19 chain: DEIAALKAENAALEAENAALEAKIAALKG

T20: 4H3922-AA
T20 chain: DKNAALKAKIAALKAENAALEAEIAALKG

T21: 4H55-AA
T21 chain: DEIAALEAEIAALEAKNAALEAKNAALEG

T22: 4H369-AA
T22 chain: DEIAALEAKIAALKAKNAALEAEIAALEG

T23: 4H4033-AA
T23 chain: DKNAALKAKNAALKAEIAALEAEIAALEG

T24: 4H327-AA
T24 chain: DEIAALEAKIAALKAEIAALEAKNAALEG


Tests used:
APC9319-AA = molecular target: T1, APC9319-AA; experiment: two-hybrid library CCmax; conditions: mean of both orientations;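 further: natural log of median RNA to DNA barcode read ratio; higher means stronger binding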
APC4264-AA = molecular target: T2, APC4264-AA; experiment: two-hybrid library CCmax; conditions: mean of both orientations;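 further: natural log of median RNA to DNA barcode read ratio; higher means stronger binding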
APC8191-AA = molecular target: T3, APC8191-AA; experiment: two-hybrid library CCmax; conditions: mean of both orientations;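 further: natural log of median RNA to DNA barcode read ratio; higher means stronger binding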
APC4011-AA = molecular target: T4, APC4011-AA; experiment: two-hybrid library CCmax; conditions: mean of both orientations;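 further: natural log of median RNA to DNA barcode read ratio; higher means stronger binding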
APC3645-AA = molecular target: T5, APC3645-AA; experiment: two-hybrid library CCmax; conditions: mean of both orientations
APC6108-AA = molecular target: T6, APC6108-AA; experiment: two-hybrid library CCmax; conditions: mean of both orientations
APC4436-AA = molecular target: T7, APC4436-AA; experiment: two-hybrid library CCmax; conditions: mean of both orientations
APC9096-AA = molecular target: T8, APC9096-AA; experiment: two-hybrid library CCmax; conditions: mean of both orientations
APC5383-AA = molecular target: T9, APC5383-AA; experiment: two-hybrid library CCmax; conditions: mean of both orientations
APC8910-AA = molecular target: T10, APC8910-AA; experiment: two-hybrid library CCmax; conditions: mean of both orientations
APC2405-AA = molecular target: T11, APC2405-AA; experiment: two-hybrid library CCmax
APC7099-AA = molecular target: T12, APC7099-AA; experiment: two-hybrid library CCmax; conditions: mean of both orientations
O8 = molecular target: T13, O8; experiment: two-hybrid library CC0; conditions: mean of both orientations
O9 = molecular target: T14, O9; experiment: two-hybrid library CC0; conditions: mean of both orientations
4H3664-AA = molecular target: T15, 4H3664-AA; experiment: two-hybrid library CCmax; conditions: mean of both orientations
4H3605-AA = molecular target: T16, 4H3605-AA; experiment: two-hybrid library CCmax; conditions: mean of both orientations
4H481-AA = molecular target: T17, 4H481-AA; experiment: two-hybrid library CCmax; conditions: mean of both orientations
4H3625-AA = molecular target: T18, 4H3625-AA; experiment: two-hybrid library CCmax; conditions: mean of both orientations
4H662-AA = molecular target: T19, 4H662-AA; experiment: two-hybrid library CCmax; conditions: mean of both orientations
4H3922-AA = molecular target: T20, 4H3922-AA; experiment: two-hybrid library CCmax; conditions: mean of both orientations
4H55-AA = molecular target: T21, 4H55-AA; experiment: two-hybrid library CCmax; conditions: mean of both orientations
4H369-AA = molecular target: T22, 4H369-AA; experiment: two-hybrid library CCmax; conditions: mean of both orientations
4H4033-AA = molecular target: T23, 4H4033-AA; experiment: two-hybrid library CCmax; conditions: mean of both orientations
4H327-AA = molecular target: T24, 4H327-AA; experiment: two-hybrid library CCmax

Row | interaction score (APC9319-AA) | interaction score (APC4264-AA) | interaction score (APC8191-AA) | interaction score (APC4011-AA) | interaction score (APC3645-AA) | interaction score (APC6108-AA) | interaction score (APC4436-AA) | interaction score (APC9096-AA) | interaction score (APC5383-AA) | interaction score (APC8910-AA) | interaction score (APC7099-AA) | Binder | further results
1 | -1.81 | -1.55 | 0.786 | -1.01 | -1.29 | -1.24 | -1.04 | -1.39 | -1.52 | -1.63 | -1.31 | DEAAALEAENAALEAELAAIEAKNAALKG [APC2405-AA] | interaction score (APC2405-AA): -1.47
2 | – | – | – | – | – | – | – | – | – | – | – | EIAALEAENAALEYEIAALEAKNAALKG [O8] | interaction score (O8): -2.62; interaction score (O9): -2.53
3 | – | – | – | – | – | – | – | – | – | – | – | DEIAALEAKIAALKAEIAALEAKNAALEG [4H327-AA] | interaction score (4H3664-AA): 0.733; interaction score (4H3605-AA): -1.29; interaction score (4H481-AA): -0.644; interaction score (4H3625-AA): 1.3; interaction score (4H662-AA): -1.42; interaction score (4H3922-AA): 0.621; interaction score (4H55-AA): -0.319; interaction score (4H369-AA): -0.747; interaction score (4H4033-AA): 0.297; interaction score (4H327-AA): 1.84
4 | -1.47 | -1.93 | -2.34 | -1.21 | -1.5 | -1.6 | -1.65 | -1.8 | -2.15 | -2.1 | -1.68 | DELAAIEAEAAALEAKAAALKAEAAALEG [APC232-AA] | interaction score (APC2405-AA; mean of both orientations): -1.6

Source: publication PMC10397247
